According to patent US10946092 (BEIJING MABWORKS BIOTECH, dated 2021):

T1: human LAG3 expressed on HEK293A cells (human, UniProt P18627 23-525)
T1 construct: whole, on cells; also called HEK293A/human LAG3
T1 sequence (looked up): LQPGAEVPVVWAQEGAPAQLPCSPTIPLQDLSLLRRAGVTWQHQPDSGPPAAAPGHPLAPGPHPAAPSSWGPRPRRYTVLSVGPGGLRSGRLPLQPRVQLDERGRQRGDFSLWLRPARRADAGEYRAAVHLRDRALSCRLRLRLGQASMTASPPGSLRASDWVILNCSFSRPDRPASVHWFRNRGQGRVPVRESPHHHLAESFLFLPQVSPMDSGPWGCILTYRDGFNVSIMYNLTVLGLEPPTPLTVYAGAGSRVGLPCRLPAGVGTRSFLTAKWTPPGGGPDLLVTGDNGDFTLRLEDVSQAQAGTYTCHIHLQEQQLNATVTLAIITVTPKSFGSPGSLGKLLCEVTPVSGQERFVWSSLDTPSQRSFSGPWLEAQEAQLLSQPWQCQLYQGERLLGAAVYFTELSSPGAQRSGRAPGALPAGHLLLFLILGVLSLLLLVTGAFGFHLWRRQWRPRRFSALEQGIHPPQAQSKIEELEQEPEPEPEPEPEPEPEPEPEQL

T2: mouse LAG3 expressed on HEK293A cells (mouse, UniProt Q61790 24-521)
T2 construct: whole, on cells; also called HEK293A/mouse LAG3
T2 sequence (looked up): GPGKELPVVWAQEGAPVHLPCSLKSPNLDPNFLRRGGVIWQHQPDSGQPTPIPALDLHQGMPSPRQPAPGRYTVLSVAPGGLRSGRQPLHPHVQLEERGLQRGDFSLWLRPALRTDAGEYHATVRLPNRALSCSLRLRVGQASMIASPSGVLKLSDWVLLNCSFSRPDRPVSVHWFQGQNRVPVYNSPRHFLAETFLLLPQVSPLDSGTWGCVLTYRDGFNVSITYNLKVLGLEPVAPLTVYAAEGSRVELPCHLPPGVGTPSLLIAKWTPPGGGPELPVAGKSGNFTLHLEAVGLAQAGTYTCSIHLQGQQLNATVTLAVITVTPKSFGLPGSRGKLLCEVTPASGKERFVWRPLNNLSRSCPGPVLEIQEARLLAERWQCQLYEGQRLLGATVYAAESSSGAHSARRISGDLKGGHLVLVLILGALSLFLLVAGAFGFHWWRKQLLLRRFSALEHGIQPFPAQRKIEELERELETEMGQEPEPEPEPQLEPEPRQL

T3: recombinant human LAG3(ECD)-his (Sino Biological, Cat #: 16498-H08H) (human, UniProt P18627 23-450)
T3 construct: extracellular domain; Bought protein; not shown: his tag
T3 sequence (looked up): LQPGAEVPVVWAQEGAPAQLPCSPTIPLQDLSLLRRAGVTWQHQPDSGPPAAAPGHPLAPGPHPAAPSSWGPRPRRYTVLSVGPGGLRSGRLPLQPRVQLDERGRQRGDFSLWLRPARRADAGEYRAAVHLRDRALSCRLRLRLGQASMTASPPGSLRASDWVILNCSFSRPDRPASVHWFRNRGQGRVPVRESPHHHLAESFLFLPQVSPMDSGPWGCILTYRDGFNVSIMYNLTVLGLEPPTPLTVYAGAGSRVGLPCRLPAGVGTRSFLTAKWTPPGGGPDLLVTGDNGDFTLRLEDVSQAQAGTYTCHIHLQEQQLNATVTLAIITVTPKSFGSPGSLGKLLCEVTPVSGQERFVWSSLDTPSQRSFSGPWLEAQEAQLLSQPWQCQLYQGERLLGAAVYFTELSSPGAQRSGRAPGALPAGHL

T4: recombinant mouse LAG3(ECD)-his (Sino Biological, Cat #: 53069-M08H) (mouse, UniProt Q61790 24-442)
T4 construct: extracellular domain; Bought protein; also called Mouse LAG3-his; not shown: his tag
T4 sequence (looked up): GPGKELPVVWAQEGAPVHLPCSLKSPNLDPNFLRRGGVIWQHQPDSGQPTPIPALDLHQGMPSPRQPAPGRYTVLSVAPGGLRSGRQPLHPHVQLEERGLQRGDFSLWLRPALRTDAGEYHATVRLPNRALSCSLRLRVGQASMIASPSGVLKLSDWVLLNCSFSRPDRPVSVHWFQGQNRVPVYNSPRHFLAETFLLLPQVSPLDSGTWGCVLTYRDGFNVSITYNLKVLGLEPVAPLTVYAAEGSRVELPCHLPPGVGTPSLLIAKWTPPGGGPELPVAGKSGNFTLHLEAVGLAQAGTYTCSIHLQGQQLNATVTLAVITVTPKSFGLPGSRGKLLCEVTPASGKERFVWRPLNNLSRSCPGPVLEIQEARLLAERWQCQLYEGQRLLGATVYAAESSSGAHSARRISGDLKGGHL

B1: mouse anti-LAG3 monoclonal antibody 134G10 (antibody, V domains shown)
VH: EVQLVESGGDLVKPGGSLKLSCAASGFTFSSFGMSWVRQTPDKRLEWVGIISSGGTYTFYPDILKGRFTISRDNAKNTLYLQMSSLKSEDTAMYYCARVYSDYDGRFDYWGQGTTLTVSS
VL: DIVMTQSPSSLSVSAGEKVTMNCKSSQSLLNSGNQKNYLAWYQQKPGQPPKLLIYGASTRESGVPDRFTGSGSGTDFTLTISSVQAEDLAVYYCQNDHSYPLTFGAGTKLELK
B2: mouse anti-LAG3 monoclonal antibody 101F4 (antibody, V domains shown)
VH: EVQLEQSGAELVRPGASVTLSCKASGYTFTDYEMHWVKQTPVYGLEWMGAIDPETGGIVYNQRFKGKAILTADKSSSTAYMELRSLTSEDSAVYYCTGAGWGYWGQGTTLTVSS
VL: DIVITQSPSSMYASLGERVTITCKASQDINSYLSWFQQKPGKSPKTLIYRANRLLDGVPSRFSGSGSGQDYSLTISSLEFEDMGLYYCLQYDEFPFTFGSGTKLEIK

Legend:
[1] = target: T1, human LAG3 expressed on HEK293A cells; assay: FACS on HEK293A/human LAG3 cells
Experimental: (§1) Briefly, 10^5 HEK293A cells in 50 μl PBS buffers were seeded into each well of the 96-well plates and then added with 50 μl of serially diluted anti-LAG3 antibodies (5-fold dilution, starting from 40 μg/ml). After incubated at 4° C. for 1 hour, plates were washed 3 times with PBST. Then, an APC coupled Goat Anti-Mouse IgG (BioLegend, US, Cat #: 405308) diluted 500× was added to the plates. After incubation at 4° C. for 1 hour, the plates were washed with PBS for 3 times and then cell fluorescence was monitored using a FACS machine (BD).

[2] = target: T2, mouse LAG3 expressed on HEK293A cells; assay: FACS on HEK293A/mouse LAG3 cells
Experimental: as §1

[3] = target: T3, recombinant human LAG3(ECD)-his (Sino …); assay: ELISA, coated human LAG3(ECD)-his
Experimental: The wells were blocked with 200 µl of blocking buffer (PBS containing 1% BSA, 1% goat serum, and 0.05% Tween 20) for 2 hours at room temperature, and then 100 µl of serially diluted anti-LAG3 antibodies (starting from 40 µg/ml) were added to each well and incubated for 1 hour at RT. Plates were washed for 3 times with PBST (PBS+0.05% Tween 20), added with Goat-anti-mouse IgG-HRP (Sigma, US, Cat #: A9309-1 ml) diluted 5000×, and incubated for 1 hour at RT. Plates were developed with freshly prepared Ultra-TMB (BD, US, Cat #:555214) for 5 minutes at RT. Absorbance was read on a SpectraMaxR i3X (Molecular Devies, US) at 450 nm.

[4] = target: T4, recombinant mouse LAG3(ECD)-his (Sino …); assay: ELISA, coated mouse LAG3-his
Experimental: Species-cross-reactivity of the 12 LAG3 mAbs to monkey or mouse LAG3 was further tested by direct ELISA. Briefly, 50 µl of 500 ng/ml monkey LAG3(ECD)-hFc (ACRO, CN, Cat #: LA3-05252) or mouse LAG3-his (Sino Biological, CN, Cat #:53069-M08H) was coated on 96-well ELISA plates followed by incubation with 100 µl of serially diluted anti-LAG3 antibodies (starting from 40 µg/ml). Goat anti-mouse IgG conjugated with HRP (Sigma, US, Cat #: A9309-1 ml) was added then.

Row | Binder | EC50 [1] [nM] | binding result [2] | EC50 [3] [nM] | binding result [4]
1 | B1 | 8.6 | no binding (tested: starting from 40 µg/ml) | 1.92 | no binding (tested: starting from 40 µg/ml)
2 | B2 | 0.36 | no binding (tested: starting from 40 µg/ml) | 4 | no binding (tested: starting from 40 µg/ml)
